The target in test [1] is T1, soluble His-tagged hepsin comprising the entire extracellular domain of human hepsin (Arg45-Leu417) (human, UniProt P05981 45-417).
T1 construct: range 45-417; also called soluble hepsin; recombinant soluble hepsin; not shown: His tag
Briefly: enzyme inhibition, 0.5 nM hepsin, chromogenic substrate S2366; apparent Ki (Ki*) from tight-binding fit. Here is the method: (§1) After substrate addition, the linear rates of the increase in absorbance at 405 nm was measured on a kinetic microplate reader (Molecular Devices, Sunnyvale, Calif.).

Test [2] has as its target T2, matriptase protease domain (UniProt Q9Y5Y6 615-855, limits assumed).
T2 construct: domain: protease domain
T2 sequence (looked up): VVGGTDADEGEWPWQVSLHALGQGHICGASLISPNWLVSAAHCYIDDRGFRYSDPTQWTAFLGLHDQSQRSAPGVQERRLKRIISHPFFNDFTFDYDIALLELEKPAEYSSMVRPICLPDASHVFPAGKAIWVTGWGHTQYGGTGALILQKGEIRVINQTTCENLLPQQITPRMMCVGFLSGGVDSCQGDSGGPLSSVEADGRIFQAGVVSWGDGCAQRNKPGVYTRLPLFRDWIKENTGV
In words: enzyme inhibition, 0.5 nM matriptase, chromogenic substrate S2765; apparent Ki (Ki*) from tight-binding fit. As for the experimental part: as §1

T1 sequence (P05981 45-417 limits assumed): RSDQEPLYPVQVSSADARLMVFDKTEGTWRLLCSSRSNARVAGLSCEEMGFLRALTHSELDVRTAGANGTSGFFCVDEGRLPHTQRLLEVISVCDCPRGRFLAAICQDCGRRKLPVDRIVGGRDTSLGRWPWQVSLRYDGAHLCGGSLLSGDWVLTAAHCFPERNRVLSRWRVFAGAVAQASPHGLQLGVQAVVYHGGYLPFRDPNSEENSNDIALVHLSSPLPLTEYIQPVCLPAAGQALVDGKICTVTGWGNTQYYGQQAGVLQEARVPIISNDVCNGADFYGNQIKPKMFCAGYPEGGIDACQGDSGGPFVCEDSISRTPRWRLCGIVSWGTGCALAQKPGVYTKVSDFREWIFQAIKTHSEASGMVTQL

B1: soluble HAI-2 (hepatocyte growth factor activator inhibitor-2) (other, UniProt O43291 28-197, looked up)
chain: ADRERSIHDFCLVSKVVGRCRASMPRWWYNVTDGSCQLFVYGGCDGNSNNYLTKEECLKKCATVTENATGDLATSRNAADSSVPSAPRRQDSEDHSSDMFNYEEYCTANAVTGPCRASFPRWYFDVERNSCNNFIYGGCRGNKNSYRSEEACMLRCFRQQENPPLPLGSK
As for B1, the Ki in test [1] stood at 0.26 nM; in test [2] it was 0.85 nM.

For the origin of these results see patent publication US20100061996A1 (Genentech, published 2010).
